Source: the supplement of paper PMC9112550, “Optimization of the antimicrobial peptide Bac7 by deep mutational scanning” (BMC Biology, 2022)

tested on: Escherichia coli TOP10; assay: shrunken log2 fold change of peptide-encoding DNA abundance (4.5 h post-induction vs induction); higher = less antimicrobial activity (less host growth inhibition); details: time post-induction: 4.5 h; library: site-saturation at positions 5, 18, 19, 20
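Note: peptides expressed intracellularly from a pBAD plasmid library in pooled LB shake-flask culture, induced with 0.3% L-arabinose, DNA abundance read by NGS, three biological replicates, DESeq2 with apeglm shrinkage.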

Row | Sequence | shrunken log2 fold change
1 | RRIRPRPPRLPRPRPRPNDYPRP | -0.307
2 | RRIRPRPPRLPRPRPRPNEEPRP | -0.0581
3 | RRIRPRPPRLPRPRPRPNESPRP | -0.00438
4 | RRIRPRPPRLPRPRPRPNITPRP | -0.293
5 | RRIRPRPPRLPRPRPRPNKEPRP | -0.406
6 | RRIRPRPPRLPRPRPRPNKTPRP | -0.0733
7 | RRIRPRPPRLPRPRPRPNKYPRP | -0.662
8 | RRIRPRPPRLPRPRPRPNLLPRP | 0.0634
9 | RRIRPRPPRLPRPRPRPNMMPRP | -0.593
10 | RRIRPRPPRLPRPRPRPNNPPRP | -0.415
11 | RRIRPRPPRLPRPRPRPNQGPRP | -0.55
12 | RRIRPRPPRLPRPRPRPNRVPRP | -0.275
13 | RRIRPRPPRLPRPRPRPNVTPRP | 0.209
14 | RRIRPRPPRLPRPRPRPNWHPRP | -0.0472
15 | RRIRPRPPRLPRPRPRPNYAPRP | -0.0849
16 | RRIRPRPPRLPRPRPRPPAYPRP | -0.0312
17 | RRIRPRPPRLPRPRPRPPCGPRP | 0.254
18 | RRIRPRPPRLPRPRPRPPCRPRP | 0.339
19 | RRIRPRPPRLPRPRPRPPDAPRP | 0.553
20 | RRIRPRPPRLPRPRPRPPDIPRP | -0.602
21 | RRIRPRPPRLPRPRPRPPFPPRP | 0.454
22 | RRIRPRPPRLPRPRPRPPGEPRP | 0.00468

Row | Sequence | shrunken log2 fold change
23 | RRIRPRPPRLPRPRPRPPHFPRP | 0.646
24 | RRIRPRPPRLPRPRPRPPHHPRP | 0.188
25 | RRIRPRPPRLPRPRPRPPHLPRP | 0.024
26 | RRIRPRPPRLPRPRPRPPHSPRP | 1.31
27 | RRIRPRPPRLPRPRPRPPIDPRP | 0.216
28 | RRIRPRPPRLPRPRPRPPIHPRP | -0.039
29 | RRIRPRPPRLPRPRPRPPIVPRP | 0.161
30 | RRIRPRPPRLPRPRPRPPKEPRP | 0.506
31 | RRIRPRPPRLPRPRPRPPKQPRP | 0.066
32 | RRIRPRPPRLPRPRPRPPLCPRP | 0.281
33 | RRIRPRPPRLPRPRPRPPLFPRP | 0.36
34 | RRIRPRPPRLPRPRPRPPLQPRP | 0.327
35 | RRIRPRPPRLPRPRPRPPMHPRP | 0.359
36 | RRIRPRPPRLPRPRPRPPMKPRP | 0.0802
37 | RRIRPRPPRLPRPRPRPPNDPRP | 0.111
38 | RRIRPRPPRLPRPRPRPPNEPRP | -0.0989
39 | RRIRPRPPRLPRPRPRPPPKPRP | 0.902
40 | RRIRPRPPRLPRPRPRPPPPPRP | 0.85
41 | RRIRPRPPRLPRPRPRPPQHPRP | 0.485
42 | RRIRPRPPRLPRPRPRPPQIPRP | 0.138
43 | RRIRPRPPRLPRPRPRPPQNPRP | 0.361
44 | RRIRPRPPRLPRPRPRPPSAPRP | 1.05

Row | Sequence | shrunken log2 fold change
45 | RRIRPRPPRLPRPRPRPPTFPRP | -0.142
46 | RRIRPRPPRLPRPRPRPPTRPRP | 0.683
47 | RRIRPRPPRLPRPRPRPPVGPRP | 0.557
48 | RRIRPRPPRLPRPRPRPPVHPRP | -0.0329
49 | RRIRPRPPRLPRPRPRPPYDPRP | -0.173
50 | RRIRPRPPRLPRPRPRPQCDPRP | -0.254
51 | RRIRPRPPRLPRPRPRPQDLPRP | -0.13
52 | RRIRPRPPRLPRPRPRPQEFPRP | 0.0774
53 | RRIRPRPPRLPRPRPRPQEYPRP | -0.151
54 | RRIRPRPPRLPRPRPRPQFWPRP | 0.249
55 | RRIRPRPPRLPRPRPRPQHCPRP | -0.0861
56 | RRIRPRPPRLPRPRPRPQHWPRP | 0.265
57 | RRIRPRPPRLPRPRPRPQIEPRP | -0.0699
58 | RRIRPRPPRLPRPRPRPQIMPRP | -0.265
59 | RRIRPRPPRLPRPRPRPQINPRP | -0.122
60 | RRIRPRPPRLPRPRPRPQITPRP | -0.314
61 | RRIRPRPPRLPRPRPRPQIWPRP | 0.0101
62 | RRIRPRPPRLPRPRPRPQKIPRP | -0.267
63 | RRIRPRPPRLPRPRPRPQLCPRP | 0.444
64 | RRIRPRPPRLPRPRPRPQLMPRP | -0.0192
65 | RRIRPRPPRLPRPRPRPQMAPRP | 0.129
66 | RRIRPRPPRLPRPRPRPQMFPRP | 0.161

Row | Sequence | shrunken log2 fold change
67 | RRIRPRPPRLPRPRPRPQNQPRP | -0.407
68 | RRIRPRPPRLPRPRPRPQNYPRP | -0.395
69 | RRIRPRPPRLPRPRPRPQPCPRP | -0.0627
70 | RRIRPRPPRLPRPRPRPQPQPRP | 0.26
71 | RRIRPRPPRLPRPRPRPQRIPRP | 0.0114
72 | RRIRPRPPRLPRPRPRPQSAPRP | 1.69
73 | RRIRPRPPRLPRPRPRPQSKPRP | -0.237
74 | RRIRPRPPRLPRPRPRPQTAPRP | 0.111
75 | RRIRPRPPRLPRPRPRPQTFPRP | -0.495
76 | RRIRPRPPRLPRPRPRPQTGPRP | 0.142
77 | RRIRPRPPRLPRPRPRPQTNPRP | -0.0828
78 | RRIRPRPPRLPRPRPRPQVRPRP | -0.13
79 | RRIRPRPPRLPRPRPRPQVVPRP | -0.00675
80 | RRIRPRPPRLPRPRPRPRAMPRP | 0.292
81 | RRIRPRPPRLPRPRPRPRAWPRP | 0.0147
82 | RRIRPRPPRLPRPRPRPRDVPRP | 0.0755
83 | RRIRPRPPRLPRPRPRPRERPRP | 0.121
84 | RRIRPRPPRLPRPRPRPRHYPRP | 0.101
85 | RRIRPRPPRLPRPRPRPRIFPRP | -0.0669
86 | RRIRPRPPRLPRPRPRPRIRPRP | 0.0752
87 | RRIRPRPPRLPRPRPRPRKKPRP | 0.0638
88 | RRIRPRPPRLPRPRPRPRKNPRP | 0.296

Row | Sequence | shrunken log2 fold change
89 | RRIRPRPPRLPRPRPRPRKYPRP | -0.352
90 | RRIRPRPPRLPRPRPRPRLAPRP | 0.507
91 | RRIRPRPPRLPRPRPRPRLGPRP | 0.586
92 | RRIRPRPPRLPRPRPRPRMEPRP | 0.197
93 | RRIRPRPPRLPRPRPRPRNPPRP | 0.405
94 | RRIRPRPPRLPRPRPRPRNRPRP | 0.516
95 | RRIRPRPPRLPRPRPRPRPLPRP | 0.627
96 | RRIRPRPPRLPRPRPRPRRYPRP | -0.0175
97 | RRIRPRPPRLPRPRPRPRTEPRP | 0.306
98 | RRIRPRPPRLPRPRPRPRTFPRP | 0.23
99 | RRIRPRPPRLPRPRPRPRVQPRP | 0.398
100 | RRIRPRPPRLPRPRPRPSACPRP | 0.0137
101 | RRIRPRPPRLPRPRPRPSASPRP | 2.33
102 | RRIRPRPPRLPRPRPRPSCVPRP | -0.368
103 | RRIRPRPPRLPRPRPRPSCYPRP | -0.332
104 | RRIRPRPPRLPRPRPRPSFHPRP | 0.626
105 | RRIRPRPPRLPRPRPRPSFTPRP | -0.213
106 | RRIRPRPPRLPRPRPRPSGAPRP | 0.345
107 | RRIRPRPPRLPRPRPRPSIAPRP | -0.131
108 | RRIRPRPPRLPRPRPRPSLHPRP | -0.21
109 | RRIRPRPPRLPRPRPRPSLNPRP | -0.539
